B1: 抗人4-1BB人源化抗体10B2 (antibody, V domains shown)
VH: QVQLVESGGGVVQPGRSLRLSCAASGFTFSTFGLHWVRQAPGKGLEWVAYISSDSNTIYYADTMKGRFTISRDNSKNTLYLQMNSLRAEDTAVYYCTRGDPAYYGYGGRFVYALDFWGQGTLVTVSS
VL: DVVVTQTPLSLSVTPGQPASISCRSSQSLTNSYGHTYLSWYLQKPGQSPQLLIYGISIRFSGVPDRFSGSGSGTDFTLKISRVEAEDVGVYYCLQGTHQPWTFGGGTKVEIK
notes: Humanised antibody expressed in 293 cells, purified on Protein A, captured by anti-human IgG in Biacore; also called hu10B2
B2: 抗人4-1BB杂交瘤抗体10B2 (antibody, V domains shown)
VH: DVQLVESGGGLVQPGGSRKLSCAASGFTFSTFGLHWVRQAPEKGLEWVAYISSDSNTIYYADTMKGRFTISRDNPKNTLFLQLTSLRSEDTAVYYCTRGDPAYYGYGGRFVYALDFWGQGTSVAVSS
VL: DVVVTQTPLSLPVSFGDQVSISCRSSQSLTNSYGHTYLSWYLHKPGQSPQLLIYGISIRFSGVPDRFSGSGSGTDFTLRISTVKPEDLGMYYCLQGTHQPWTFGGGTKLEIK
notes: Mouse hybridoma antibody purified on Protein A
B3: 抗人4-1BB杂交瘤抗体1A2 (antibody, V domains shown)
VH: EAQLQQSGAELVKPGASVKLSCTASGFNIKDTYMNWMKQRPEQGLEWIGRIAPANGNTKYAPQFQDKATITADTSSNTANLQLSSLTSEDTAVYYCARSYGSNFFDYWGQGTALTVSS
VL: EIQLTQSPASLAVSLGQRATISCKSSQSVDNYDNSFMHWYQQKPGQPPKLLIKRASNLETGVPARFSGSGSRTDFTLNIHPVEEEDTATYFCQQSVENPFTFGSGTKVELK
notes: as for B2
B4: 抗人4-1BB杂交瘤抗体3A11 (antibody, V domains shown)
VH: EVQLVETGGGLVQPNGSLKLSCAASGFIFNTNAMNWVRQAPGKGLEWIARIRSKINNYATYYADSVKDRFTISRDDSQSMLYLQMNNLKTEDTGMYYCNWDEAYWGQGTLVTVSA
VL: DIQMTQSSSYLSVSLGGRVTVTCKASDHINNWLAWYQQKPGNAPRLLIFGATSLETGVPSRFSGSASGNDYTLTITSLQTEDVATYYCQQYWSIPYTFGGGTKLEIK
notes: as for B2
B5: 抗人4-1BB人源化抗体1A2 (antibody, V domains shown)
VH: EAQLVQSGAEVKKPGATVKISCKVSGFNIKDTYMNWVQQAPGKGLEWIGRIAPANGNTKYAPQFQDRATITADTSTDTAYMELSSLRSEDTAVYYCARSYGSNFFDYWGQGTLVTVSS
VL: EIVLTQSPATLSLSPGERATLSCKSSQSVDNYDNSFMHWYQQKPGQAPRLLIYRASNLETGIPARFSGSGSRTDFTLTISSLEPEDFAVYYCQQSVENPFTFGQGTKLEIK
notes: Humanised antibody expressed in 293 cells, purified on Protein A, captured by anti-human IgG in Biacore; also called hu1A2
B6: 抗人4-1BB人源化抗体3A11 (antibody, V domains shown)
VH: EVQLVESGGGLVKPGGSLRLSCAASGFIFNTNAMNWVRQAPGKGLEWIARIRSKINNYATYYADSVKDRFTISRDDSKNTLYLQMNSLKTEDTAVYYCNWDEAYWGQGTLVTVSS
VL: DIQMTQSPSSLSASVGDRVTITCKASDHINNWLAWYQQKPGKAPKLLIFGATSLETGVPSRFSGSASGNDYTLTISSLQPEDFATYYCQQYWSIPYTFGQGTKLEIK
notes: Humanised antibody expressed in 293 cells, purified on Protein A, captured by anti-human IgG in Biacore; also called hu3A11
B7: 抗人4-1BB杂交瘤抗体8H8 (antibody, V domains shown)
VH: QIQLVQSGPELKKPGETVKISCKASGYTFSNYGMNWVKQAPGKGLKWMGWINTHTGEPTYADEFKGRFAFSLETSVSTAYLQINNLKNEDTATYFCARVLTMVMDYWGQGTSVTVSS
VL: DIVLTQSPASLAVSLGQRATISCRASEIIDGSGNSFVHWYQQKPGQPPKLLIYRTSTLESGIPARFSGSGSRTDFTLTINPVEADDVATYSCLQTVEDPWTFGGGTKLEIK
notes: as for B2
B8: 抗人4-1BB杂交瘤抗体8E9 (antibody, V domains shown)
VH: QAQLQQSGPELVRPGTSVKMSCKTSGYSFTGYWMHWMKQRPGQGLEWIGMIDPSNSDTRLNQKFKDKATLNVDKSSNTAYMDFSSLTSEDSAVYYCARWRYYGYDGIAYWGQGTLVTVSA
VL: DIVMTQSPSSLTVTAGEKVTVSCKSSQSLLNSGNQRNYLTWYQQKPGQPPKLLIYWASTRESGVPDHFTGSGSGTDFTLTISSVQAEDLAVYYCQNDYTYPFTFGGGTKLEIK
notes: as for B2
B9: 抗人4-1BB人源化抗体8H8 (antibody, V domains shown)
VH: QIQLVQSGSELKKPGASVKVSCKASGYTFSNYGMNWVRQAPGQGLEWMGWINTHTGEPTYADEFKGRFVFSLDTSVSTAYLQISSLKAEDTAVYYCARVLTMVMDYWGQGTLVTVSS
VL: DIVLTQSPDSLAVSLGERATINCRASEIIDGSGNSFVHWYQQKPGQPPKLLIYRTSTLESGVPDRFSGSGSRTDFTLTISSLQAEDVAVYYCLQTVEDPWTFGGGTKVEIK
notes: Humanised antibody expressed in 293 cells, purified on Protein A, captured by anti-human IgG in Biacore; also called hu8H8
B10: 抗人4-1BB杂交瘤抗体8A8 (antibody, V domains shown)
VH: QVQLKQSGPGLVQPSQSLSITCTVSGFSLTNYGVHWVRQSPGKGLEWLGAIWSGGNTDYSAAFMSRVTINKDNSKSQVFFKMNSLRPDDTAIYYCARNPYYTNVMDYWGQGTSVTVSS
VL: DIQMTQSPASLSASVGETVTITCRASGNIGNFLAWYQQKQGKSPQLLVYNGETLADGVPSRFSGSGSGTQYSLKINSLQPEDFGSYYCQHFWSTPWTFGGGTKLEIK
notes: as for B2
B11: 抗人4-1BB杂交瘤抗体3F10 (antibody, V domains shown)
VH: QVQLQQSGAELVRPGASVKISCKAFGFTFTHHHINWVKQRPGQGLDWIGYINPYNDYSIYNQKFEGKATLTVDKSSSTAYMELSRLTSDDSAVYFCARGGLGRGYFDYWGQGTTLTVSS
VL: DIVMTQSTAIMSASLGEKVTMTCRASSSVTSSYLHWYQQKSGASPKIWISSTSNLASGVPVRFSGSGSGTSYSLTISSVEAEDAATYYCQQYSGNPYTFGGGTKLEIK
notes: as for B2
B12: 抗人4-1BB杂交瘤抗体2F10 (antibody, V domains shown)
VH: QVQLQQSGAALVKPGASVKLSCTASGFNIEDTYLNWVKQRPEQGLEWIGKIYPANGDTKYDPKFQGKATITAETPSNKAYLQLSSLTSEDTAVYYCTRGYGSNFFDCWGQGTSLTVSS
VL: DIVLTQSPASLAVALGQRATISCRASESVDSYDNSFMHWYQQKVGQPPKLLIYRASNLESGLPARFSGSGSRTDFTLTINPVEADDVATYYCQQSNEDPYTFGGGTKLEII
notes: as for B2

Target: T1, 人4-1BB on Jurkat-4-1BB细胞 (human, UniProt Q07011 24-255)
T1 construct: whole, on cells; the reporter line Jurkat-4-1BB-NFkB-luc carries the same receptor; also called Jurkat-4-1BB-NFkB-luc; CD137
T1 sequence (Q07011 24-255): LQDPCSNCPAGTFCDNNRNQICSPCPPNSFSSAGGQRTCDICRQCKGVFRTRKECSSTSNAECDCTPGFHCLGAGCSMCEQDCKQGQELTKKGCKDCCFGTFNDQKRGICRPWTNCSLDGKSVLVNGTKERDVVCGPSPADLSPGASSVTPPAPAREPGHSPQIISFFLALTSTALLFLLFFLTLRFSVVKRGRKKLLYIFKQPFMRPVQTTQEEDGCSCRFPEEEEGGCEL
Test: FACS on Jurkat-4-1BB cells

Binding result, binds:
B1
B2
B3
B4
B5
B6
B7
B8
B9
B10
B11
B12

Target: T2, 4-1BB-ECD-hFc (human, UniProt Q07011 24-186)
T2 construct: extracellular domain; Coated on the ELISA plate; also called 4-1BB-hFc; 4-1BB-hFc蛋白; not shown: human Fc (hFc)
Test: ELISA, 4-1BB-ECD-hFc coated

Binding result, binds:
B2
B3
B4
B7
B8
B10
B11
B12

Target: T2, 4-1BB-ECD-hFc
Test: ELISA, method as in Example 1

Binding result, binds:
B1
B5
B6
B9
